According to patent publication US20210332145A1 (SINGLE CELL TECHNOLOGY, published 2021):
Numbering of substitutions follows the chain as printed.

B1: SCT-Aa01(m/m) (antibody, V domains shown)
VH: DVQLQESGPGLVKPSQSLSLTCSVTGYSITSGYYWNWIRQFPGNKLEWMGYIRYDGSNNYNPSLKNRISITRDTSKNQFFLKLNSVTTEDTATYYCAPYDYDYAMDFWGQGTSVTVSS
VL: DIQMTQSPASLSASVGETVTITCRASGNIHNYLAWYQQKQGKSPQLLVYNAKTLAHGVPSRFSGSGSGTQYSLKITSLQPEDFGTYYCQHFWSTPFTFGSGTKLEIK
notes: Full IgG format: mouse IgG1 heavy chain constant region, mouse kappa light chain constant region
B2: SCT-Aa05(m/m) (antibody, V domains shown)
VH: EVKLLQSGGGLVQPGGSLKLSCAASGIDFSRYWMSWVRRAPGKGLEWIGEINPDSSTINYAPSLKDKFIISRDNAKNTLYLQMSKVRSEDTGLYYCASLYYDYEREYGMDYWGQGTSVTVSS
VL: DIVMTQSQKFMSTSVGDRVSVTCKASQNVGTNVAWYQQKPGQSPKALIYSASYRFSGVPDRFTGSGSGTDFTLTISNVQSEDLAEYFCQQYNSYPYTFGGGTKLEIK
notes: as for B1
B3: SCT-Aa03(m/m) (antibody, V domains shown)
VH: EVKLLQSGGGLVQPGGSLKLSCAASGIDFSRYWMSWVRRAPGKGLEWIGEINPDSSTINYAPSLKDKFIISRDNAKNTLYLQMSKVRSEDTALYYCASFYYDYDHAMDYWGQGTSVTVSS
VL: B2 VL with V19F, Y96F, G100S
notes: as for B1
B4: SCT-Aa03(h/h) (antibody, V domains shown)
VH: B3 VH
VL: B2 VL with V19F, Y96F, G100S
notes: Full IgG format, chimeric: human IgG1 heavy chain constant region, human kappa light chain constant region
B5: SCT-Aa05(h/h) (antibody, V domains shown)
VH: B2 VH
VL: B2 VL
notes: as for B4
B6: SCT-Aa02(h/h) (antibody, V domains shown)
VH: B2 VH with Y60S, K65E, G92A, E106D, G108A, T116A
VL: B2 VL with N92H, Y96F
notes: as for B4
B7: SCT-Aa02(m/m) (antibody, V domains shown)
VH: B2 VH with Y60S, K65E, G92A, E106D, G108A, T116A
VL: B2 VL with N92H, Y96F
notes: as for B1
B8: SCT-Aa04(m/m) (antibody, V domains shown)
VH: B2 VH with G92A, L99F, E104D, E106G, Y107A, G108A
VL: B2 VL with F55Y
notes: as for B1
B9: SCT-Aa04(h/h) (antibody, V domains shown)
VH: B2 VH with G92A, L99F, E104D, E106G, Y107A, G108A
VL: B2 VL with F55Y
notes: as for B4
B10: SCT-Aa13(m/m) (antibody, V domains shown)
VH: QVQLQQSDAELVKPGASVKISCKVSGYTFTDYTIHWMKQRPEQGLEWIGYIYPRDGSTKYNEKFKGKATLTADKSSSTAYMQLNSLTSEDSAVYFCARWDYEGFDYWGQGTTLTVSS
VL: DIVMTQSPATLSVTPGDRVSLSCRASQSISDYLHWYQQKSHESPRLLIKYASQSISGIPSRFSGSGSGSDFTLSINSVEPEDVGVYYCQNGHSFPPTFGSGTKLEIK
notes: as for B1
B11: SCT-Aa09(m/m) (antibody, V domains shown)
VH: B10 VH with Y32H, I51F, G56D, S57N, K74R
VL: B10 VL with S30R
notes: as for B1
B12: SCT-Aa12(m/m) (antibody, V domains shown)
VH: B10 VH with Y52F, R54S, E89D
VL: B10 VL with H34N
notes: as for B1

Columns and labels:
[1] = biological target: T1, human BCMA with a His tag (ACROBiosystems, Catalog No.: BCA-H522y) (human); assay: SPR, Biacore T200
T1 construct: Bought His-tagged recombinant protein; also called huBCMA-His; Recombinant human BCMA
T1 chain: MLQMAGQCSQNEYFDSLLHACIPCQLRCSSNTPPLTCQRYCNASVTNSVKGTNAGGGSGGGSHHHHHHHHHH
Protocol: The binding affinity of select anti-BCMA was measured on a surface plasmon resonance (SPR) instrument, Biacore T200™, against human BCMA by a method known in the art.
In experiments performed essentially as described above, a subset of anti-human BCMA antibodies of the present disclosure bind human BCMA with a His tag (ACROBiosystems, Beijing, China, Catalog No.: BCA-H522y, SEQ ID NO:2) with affinity shown in Table 6.

[2] = biological target: T2, BCMA on cells (293T cells transfected with BCMA; H929, MM.1S and U266 cell lines expressing BCMA) (human, UniProt Q02223 1-184); assay: flow cytometry, H929 cells
T2 construct: H929, MM.1S and U266 carry the native protein; also called B-cell Maturation Antigen; TNFRSF17
T2 sequence: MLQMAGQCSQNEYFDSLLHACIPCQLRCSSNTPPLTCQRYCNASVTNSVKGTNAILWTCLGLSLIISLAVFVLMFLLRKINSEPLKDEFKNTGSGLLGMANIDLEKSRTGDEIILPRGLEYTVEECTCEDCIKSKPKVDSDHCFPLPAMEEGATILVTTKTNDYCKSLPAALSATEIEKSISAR

[3] = biological target: T2, BCMA on cells (293T cells transfected …); assay: flow cytometry, 293T cells transfected with BCMA, above parental 293T background
[4] = biological target: T1, human BCMA with a His tag …; assay: ELISA, plate-coated human BCMA-His
Protocol: (§1) The recombinantly expressed antibodies were used to assess binding activity to BCMA of different species origins by conventional ELISA according to the known art. Recombinant human BCMA, cyno BCMA, and mouse BCMA were coated onto ELISA plates to detect binding at serially diluted concentrations of the anti-BCMA antibody preparations.
(§2) The ability for antibodies of the present disclosure to bind human BCMA was measured with an ELISA assay. For the BCMA binding assay, a 96-well plate (Nunc) is coated with human BCMA with a His tag (ACROBiosystems, Catalog No.: AC108P1-180611F2-Bulk, SEQ ID NO:2) at 0.2 μg/well overnight at 4° C. Wells are blocked for 2 h with blocking buffer (PBS containing 3% bovine serum albumin). Wells are washed three times with PBS containing 0.1% Tween-20. Anti-human BCMA antibodies of the present disclosure or control IgG (100 μL) is then added and incubated at room temperature for 1 h. After washing, the plate is incubated with 100 μL of goat anti-mouse IgG Fcγ Fragment Specific-HRP conjugate (Jackson ImmunoResearch) at room temperature for 1 h. The plates are washed and then incubated with 100 μL of 3,3′,5,5′-tetra-methylbenzidine. The absorbance at 450 nm is read on a microplate reader. The half maximal effective concentration (EC50) is calculated using GraphPad Prism 6 software.
In experiments performed essentially as described above, anti-human BCMA antibodies of the present disclosure bind human BCMA with a His tag (ACROBiosystems, Beijing, China, Catalog No.: BCA-H522y, SEQ ID NO:2) with an EC50 values shown in Table 3.

[5] = biological target: T2, BCMA on cells (293T cells transfected …); assay: flow cytometry, H929 cells; remark: listed apart in the source
Protocol: A cell line expressing BCMA, H929, was used to assess binding by anti-BCMA antibodies on the native protein on the cell surface by flow cytometry according to the known art. A subset of anti-human BCMA antibodies were assayed for binding to H929 and the fraction of cells bound the labeled antibody above background defined by control is shown in Table 8.

[6] = biological target: T3, cyno BCMA with a His tag (ACROBiosystems, Catalog No.: BCA-052H7) (cyno); assay: ELISA, plate-coated cyno BCMA-His
T3 construct: Bought His-tagged recombinant protein
Protocol: as §1, §2
In experiments performed essentially as described above, anti-human BCMA antibodies of the present disclosure bind cyno BCMA with a His tag (ACROBiosystems, Beijing, China, Catalog No.: BCA-052H7, SEQ ID NO:110) with an EC50 values shown in Table 4.

[7] = biological target: T4, mouse BCMA with a His tag (ACROBiosystems, Catalog No.: BCA-M52H3) (mouse); assay: ELISA, plate-coated mouse BCMA-His
T4 construct: Bought His-tagged recombinant protein
T4 chain: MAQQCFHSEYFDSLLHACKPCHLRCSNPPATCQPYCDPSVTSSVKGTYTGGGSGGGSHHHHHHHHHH
Protocol: as §1, §2
In experiments performed essentially as described above, anti-human BCMA antibodies of the present disclosure bind mouse BCMA with a His tag (ACROBiosystems, Beijing, China, Catalog No.: BCA-M52H3, SEQ ID NO:109) with an EC50 values shown in Table 5.

T3 sequence (chain, as listed by the source limits assumed): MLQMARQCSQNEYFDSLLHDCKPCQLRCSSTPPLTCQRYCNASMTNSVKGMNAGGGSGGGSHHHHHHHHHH

Binder	Kd [1] [nM]	koff [1] [s⁻¹]	kon [1] [M⁻¹ s⁻¹]	Mean fluorescent intensity [2]	Positive (%) [3] [%]	EC50 [4] [µg/mL]	Positive (%) [5] [%]	EC50 [6] [µg/mL]	EC50 [7] [µg/mL]
B1	68.6	0.0175	255000	2090	48.2	0.00292	99.8	0.0057	–
B2	4.91	0.00034	69200	2020	94.3	0.00212	99.9	–	0.0522
B3	11.7	0.00263	224000	3920	91.6	0.00171	99.9	–	0.0791
B4	9.49	0.00284	299000	1070	75.1	0.00346	98.2	1.6	0.0108
B5	9.93	0.000995	100000	758	76.3	0.00235	96.5	–	0.0295
B6	1.22	0.000374	306000	1280	81.9	0.00285	99.2	0.0433	–
B7	0.388	0.000113	292000	4560	96.3	0.00286	100	0.0891	0.00262
B8	5.62	0.0126	2.25e+06	3790	88.9	0.00232	99.9	2.05	0.0343
B9	32.6	0.034	1.04e+06	623	72	0.00248	96.5	–	0.27
B10	43.8	0.0358	817000	2560	84.4	0.00264	99.9	0.174	0.529
B11	76.6	0.127	1.66e+06	102	16.9	0.00196	18.4	5.57	–
B12	5.01	0.011	2.2e+06	3480	85.7	0.0017	99.9	9.74	0.0107
